According to patent publication US20220064335A1 (CRISPR THERAPEUTICS, published 2022):

Columns and labels:
[1] = target: T1, anti-CD19 CAR (SEQ ID NO: 8) on CAR T cells; assay: flow cytometry, % CAR positive cells against antibody dilution on anti-CD19 CAR T cells
T1 construct: also called anti-CD19 CAR T cells
Procedure: (§1) The purified 15C04-02F03 antibody was analyzed by flow cytometry for binding to CAR T cells expressing the anti-BCMA CAR of SEQ ID NO: 6 (anti-BCMA CAR T cells). CAR T cells expressing an anti-CD70 CAR of SEQ ID NO: 7 (anti-CD70 CAR T cells) or an anti-CD19 CAR SEQ ID NO: 8 (anti-CD19 CAR T cells) were used as negative controls. Anti-BCMA-scFv antibody (15C04-02F03) was analyzed at various dilutions (FIG. 2).

[2] = target: T2, anti-CD70 CAR (SEQ ID NO: 7) on CAR T cells; assay: flow cytometry, % CAR positive cells against antibody dilution on anti-CD70 CAR T cells
T2 construct: also called anti-CD70 CAR T cells
T2 sequence (chain, as listed by the source limits assumed): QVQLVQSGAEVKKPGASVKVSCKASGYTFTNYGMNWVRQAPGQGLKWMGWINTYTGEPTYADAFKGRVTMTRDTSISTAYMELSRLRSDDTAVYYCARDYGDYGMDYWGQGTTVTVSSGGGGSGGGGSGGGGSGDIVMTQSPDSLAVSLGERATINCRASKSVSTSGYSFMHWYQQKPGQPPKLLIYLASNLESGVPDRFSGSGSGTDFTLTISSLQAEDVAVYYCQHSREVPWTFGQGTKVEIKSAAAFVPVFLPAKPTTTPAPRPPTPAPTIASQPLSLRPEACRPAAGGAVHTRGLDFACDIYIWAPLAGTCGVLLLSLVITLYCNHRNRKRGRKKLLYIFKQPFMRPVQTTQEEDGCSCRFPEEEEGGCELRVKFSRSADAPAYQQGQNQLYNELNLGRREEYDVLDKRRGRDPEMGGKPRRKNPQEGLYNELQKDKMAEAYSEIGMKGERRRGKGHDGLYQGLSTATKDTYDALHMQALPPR
Procedure: as §1

binding result [1]: no binding
binding result [2]: no binding
B1: mouse anti-BCMA-scFv monoclonal antibody 15C04-02F03 (antibody, mouse IgG1, kappa, V domains shown)
VH: QVQLQQPGAELVKPGTSVKLSCKASAYTFTNYWIHWVKQRPGQGLEWIGRIDPNSGDTKYNEKFKSKASLTVDKPSSTANMQLSSLTSEDSAVYYCTRWGDLHYYAMDYWGQGTSVTVSS
VL: DIVLTQSPASLAVSLGQRATISCQASESVSFTGTSLMHWYQQKPGQPPKLLIYRASNLDSGVPARFSGSGSESDFTLTIDPVEEDDAAVYYCMQSMEDPYTFGGGTKLEIKR
notes: also called Native 15C04-02F03; anti-BCMA-scFv-AJ-1.3-15C04-02F03
